# Results published in publication PMC5554155.
# Test: immunoblot, N-terminal Flag vs C-terminal epitopes, ldlD cells
# Conditions: glycan lost; control: WT Ser49-β1AR, ldlD cells with Gal/GalNAc
row,Substance,other: proteolytic processing
1,β1-adrenergic receptor (β1AR): N15A,no change
2,β1-adrenergic receptor (β1AR): ldlD cells without Gal/GalNAc,increases
